Results as given in IntAct's records for PubMed 22820947.

B1: ATP-dependent helicase SGS1 (Saccharomyces cerevisiae), P35187 (parent)
chain: MVTKPSHNLRREHKWLKETATLQEDKDFVFQAIQKHIANKRPKTNSPPTTPSKDECGPGTTNFITSIPASGPTNTATKQHEVMQTLSNDTEWLSYTATSNQYADVPMVDIPASTSVVSNPRTPNGSKTHNFNTFRPHMASSLVENDSSRNLGSRNNNKSVIDNSSIGKQLENDIKLEVIRLQGSLIMALKEQSKLLLQKCSIIESTSLSEDAKRLQLSRDIRPQLSNMSIRIDSLEKEIIKAKKDGMSKDQSKGRSQVSSQDDNIISSILPSPLEYNTSSRNSNLTSTTATTVTKALAITGAKQNITNNTGKNSNNDSNNDDLIQVLDDEDDIDCDPPVILKEGAPHSPAFPHLHMTSEEQDELTRRRNMRSREPVNYRIPDRDDPFDYVMGKSLRDDYPDVEREEDELTMEAEDDAHSSYMTTRDEEKEENELLNQSDFDFVVNDDLDPTQDTDYHDNMDVSANIQESSQEGDTRSTITLSQNKNVQVILSSPTAQSVPSNGQNQIGVEHIDLLEDDLEKDAILDDSMSFSFGRQHMPMSHSDLELIDSEKENEDFEEDNNNNGIEYLSDSDLERFDEERENRTQVADIQELDNDLKIITERKLTGDNEHPPPSWSPKIKREKSSVSQKDEEDDFDDDFSLSDIVSKSNLSSKTNGPTYPWSDEVLYRLHEVFKLPGFRPNQLEAVNATLQGKDVFVLMPTGGGKSLCYQLPAVVKSGKTHGTTIVISPLISLMQDQVEHLLNKNIKASMFSSRGTAEQRRQTFNLFINGLLDLVYISPEMISASEQCKRAISRLYADGKLARIVVDEAHCVSNWGHDFRPDYKELKFFKREYPDIPMIALTATASEQVRMDIIHNLELKEPVFLKQSFNRTNLYYEVNKKTKNTIFEICDAVKSRFKNQTGIIYCHSKKSCEQTSAQMQRNGIKCAYYHAGMEPDERLSVQKAWQADEIQVICATVAFGMGIDKPDVRFVYHFTVPRTLEGYYQETGRAGRDGNYSYCITYFSFRDIRTMQTMIQKDKNLDRENKEKHLNKLQQVMAYCDNVTDCRRKLVLSYFNEDFDSKLCHKNCDNCRNSANVINEERDVTEPAKKIVKLVESIQNERVTIIYCQDVFKGSRSSKIVQANHDTLEEHGIGKSMQKSEIERIFFHLITIRVLQEYSIMNNSGFASSYVKVGPNAKKLLTGKMEIKMQFTISAPNSRPSTSSSFQANEDNIPVIAQKSTTIGGNVAANPPRFISAKEHLRSYTYGGSTMGSSHPITLKNTSDLRSTQELNNLRMTYERLRELSLNLGNRMVPPVGNFMPDSILKKMAAILPMNDSAFATLGTVEDKYRRRFKYFKATIADLSKKRSSEDHEKYDTILNDEFVNRAAASSNGIAQSTGTKSKFFGANLNEAKENEQIINQIRQSQLPKNTTSSKSGTRSISKSSKKSANGRRGFRNYRGHYRGRK

Variants of: B1
Conditions: with rad53_yeast RAD53, P22216
rad53_yeast RAD53, P22216, sequence (P22216 whole entry): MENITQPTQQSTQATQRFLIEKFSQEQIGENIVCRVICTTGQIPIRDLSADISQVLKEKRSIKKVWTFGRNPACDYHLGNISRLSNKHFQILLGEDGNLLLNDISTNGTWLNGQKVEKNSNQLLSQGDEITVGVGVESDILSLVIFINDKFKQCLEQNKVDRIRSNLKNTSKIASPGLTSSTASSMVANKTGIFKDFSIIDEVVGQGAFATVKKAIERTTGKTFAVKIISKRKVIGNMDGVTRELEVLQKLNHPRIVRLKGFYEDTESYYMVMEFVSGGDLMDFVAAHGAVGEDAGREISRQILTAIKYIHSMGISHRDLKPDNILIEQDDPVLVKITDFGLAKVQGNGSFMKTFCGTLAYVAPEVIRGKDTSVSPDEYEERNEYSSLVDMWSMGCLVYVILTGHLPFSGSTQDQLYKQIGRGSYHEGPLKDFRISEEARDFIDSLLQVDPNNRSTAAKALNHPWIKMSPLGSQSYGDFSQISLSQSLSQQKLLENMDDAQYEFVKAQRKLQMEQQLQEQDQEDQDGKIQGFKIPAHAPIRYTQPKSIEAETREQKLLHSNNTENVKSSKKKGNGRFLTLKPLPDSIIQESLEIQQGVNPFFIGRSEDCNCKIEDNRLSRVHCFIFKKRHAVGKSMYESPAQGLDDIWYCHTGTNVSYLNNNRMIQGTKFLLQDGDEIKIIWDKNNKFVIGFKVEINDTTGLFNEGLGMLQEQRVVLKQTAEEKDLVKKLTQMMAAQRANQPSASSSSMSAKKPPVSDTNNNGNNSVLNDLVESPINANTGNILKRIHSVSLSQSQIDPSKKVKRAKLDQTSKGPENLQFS

| Variant | effect of a mutation on the interaction |
| --- | --- |
| S470A | decreasing interaction |
| T451A | decreasing interaction |

Now from value to variant:

| effect of a mutation on the interaction | Variant |
| --- | --- |
| decreasing interaction | T585A |
| decreasing interaction | S482A |
